# Laboratory results as given in the nanobody polyreactivity screen of Harvey et al. (2022).
# Test: yeast display, Sf9 membrane polyspecificity reagent, FACS + sequencing; frameworks hold sequencing errors
# In short: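 Nanobodies came from a synthetic yeast display library in Saccharomyces cerevisiae BJ5465, induced with galactose for 36–48 hours and stained for 1 hour at 4 °C with 10% biotinylated, detergent-solubilized Sf9 membrane reagent. Cells were enriched on streptavidin microbeads and then FACS-sorted, with low and high (top ~1%) gates set on anti-HA fluorescence for expression and streptavidin fluorescence for reagent binding. Each polyreactivity label reflects the gate a clone came from. Genes were amplified by colony PCR, sequenced by MiSeq 2 × 250 and filtered by CDR length.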
row,Sequence,polyreactivity (PSR sort gate)
1,QVQLVESGGGLVQAGGSLRLSCAASGFNFRGNAMGWYRQAPGKERELVARISGSGDSTYYADSVKGRFTISRDNAKNTVYLQMNSLKPEDTAVYYCNADVFPAVEAYDSSIEYYSWGQGTQVTVSS,low polyreactivity
2,QVQLVESGGGLVQAGGSLRLSCAASGFNFRRNAMGWYRQAPGKERELVAVITSSARTNYADSVKGRFTISRDNAKNTVYLQMNSLNPEDTAVYSCNAYRYRQSSSDKYGYWGQGTQVTVSS,high polyreactivity
3,QVQLVESGGGLVQAGGSLRLSCAASGFNFRYYAMGWYRQAPGKERELVAAISASSGRTYYADSVKGRFTISRDNAKNTVYLQMNSLKPEDTAVYYCAAEYIRNGDYGLDYWGQGTQVTVSS,high polyreactivity
4,QVQLVESGGGLVQAGGSLRLSCAASGFNFRYYAMGWYRQAPGKERELVAAISWSGGTTYYADSVKGRFTISRDNAKNTVYLQMNSLKPEDTAVYYCAARVARFSVPYDYWGQGTQVTVSS,low polyreactivity
5,QVQLVESGGGLVQAGGSLRLSCAASGFNFSLNAMGWYRQAPGKERELVAAISRSGGRTYYADSVKGRFTISRDNAKNTVYLQMNSLKPEDTAVYYCAAVPITWYAYDYWGQGTQVTVSS,high polyreactivity
6,QVQLVESGGGLVQAGGSLRLSCAASGFNFSQYAMGWYRQAPGKERELVAAISSGSTYADSVKGRFTISRDNAKNSVYLQMNSLKREDTAVYYCANDPFSRGSRRYDYWGQGTQVTVSS,low polyreactivity
7,QVQLVESGGGLVQAGGSLRLSCAASGFNFTLNTMGWYRQAPGKERELVAAINSGDSTYADSVKGRFTISRDNAKNTVYLQMNSLKPEDTAVYYCNADPDWWYPFNYWGQGTQVTVSS,low polyreactivity
8,QVQLVESGGGLVQAGGSLRLSCAASGFNFYDYTMGWYRQAPGKERELVAAISWSGGSTYHADSVKGRFTISRDTAKNTVYLQMNSLKPEDTAVYYCNADYGYYKSGYGFDYWGQGTKVTVSS,low polyreactivity
9,QVQLVESGGGLVQAGGSLRLSCAASGFNFYGYVMGWYRQAPGKERELVAVISRSGDRTSYADSVKGRFTISRDTAKNTVYLQMNSLKPEDTAVYYCAAESGWGAAGEELDYWGQGTQVTVSS,high polyreactivity
10,QVQLVESGGGLVQAGGSLRLSCAASGFNFYRNTMGWYSQAPGKEREFVAAIRWRGGSTYYADSVKGRFTISRDNAKNTVYLQMNSLKPEDTAVYYCAADTRPGYSGFEYWGQGTQVTVSS,high polyreactivity
11,QVQLVESGGGLVQAGGSLRLSCAASGFNFYRYTLGWYRQAPGKERELVASITRRCGSTYYADSVKGRFTISRDNAKHTVYLQMNILKQEDTAEYYCNDATPVWQSGTYDYWGQGTQVTVSS,high polyreactivity
12,QVQLVESGGGLVQAGGSLRLSCAASGFNFYTNVMGWYRPAPGKERELVAAINSGGSTNYADSVKGRFTISRDNAKNTVYLQMNSLKPEDTAVYYCAARVARISVPYDYWGQGTQVTVSS,low polyreactivity
13,QVQLVESGGGLVQAGGSLRLSCAASGFNYGIYAMGWYRQAPGKERELVAAISRGGGSTYYADSVKGRFTISRDNAKNTVYLQMNSLKPEDTAVYYCAARYQSPYDYWGQGTQVTVSS,high polyreactivity
14,QVQLVESGGGLVQAGGSLRLSCAASGFNYYRYVMVWYRQAPGKERELVAAITTSGGSTYYADSVKGRFTISRDNAKNTVYLQMNSLKPEDTAVYYCAAVYIPSRQWYDYWGQGTQVTVSS,high polyreactivity
15,QVQLVESGGGLVQAGGSLRLSCAASGFSFATYAMGWYRQAPGKERELVAAISSTGGRTYYAVSVKGRFTISRDNAKNNVYLQMNSLKPEDTAVYYCAADWRVTYDYWGQGTQVTVSS,high polyreactivity
16,QVQLVESGGGLVQAGGSLRLSCAASGFSFGIYAMGWYRQAPGKERELYADSVKGRFTISRDNAKNTVYLQMNSLKPEDTAVYYCAADYWYGAGLPHGTEFDYWGQGTQVTVSS,low polyreactivity
17,QVQLVESGGGLVQAGGSLRLSCAASGFSFRGYAMGWYRQAPGKERELVAAINYSGGSTYYADSVKGRFTISRDNAKNTVYLQMNSLKPEDTAVYYCAAGKRGDDDYWGQGTQVTVSS,high polyreactivity
18,QVQLVESGGGLVQAGGSLRLSCAASGFTFAAYAMGWYRPAPGKERELVAAITSRDGTTYYADSVKGRFTISRNNAKNTVYLQMNSLKPEDTAVYYGAKDHFTWGVSEDDYWRQGTQVTVSS,low polyreactivity
19,QVQLVESGGGLVQAGGSLRLSCAASGFTFAHNAMGWYRQAPGKERELVAAITSRGGSTYYADSVKGRFTISRDNAKNTVYLQMNSLKPEDTAVYYCAARGVNRQVFNYWGQGTQVTVSS,high polyreactivity
20,QVQLVESGGGLVQAGGSLRLSCAASGFTFAKNAMGWYRQAPGKERELVATISRSGGSTYYADSVKGRFTLSRDNAKNTVYLQMNSLKREVNAVYYCNKKYNYLYDYWGQGTQVTVSS,high polyreactivity
21,QVQLVESGGGLVQAGGSLRLSCAASGFTFAKYAMGWSRQAPGKERELVAAIRSRGDTTYYADSVKGRFTISRDNAKNTVYFQMNSLKPEDTAVYYCAARSYFLVDCSRYDYWGQGSQVTVSS,high polyreactivity
22,QVQLVESGGGLVQAGGSLRLSCAASGFTFAKYAMGWYRQAPGKERELVAAISSNGGTTYYADSVKGRFTISRDNAKNTVYLQMNSLKPEDTAVYYCAVRSRVYPSRVKYDYWGQGTQVTVSS,high polyreactivity

row,Sequence,polyreactivity (PSR sort gate)
1,QVQLVESGGGLVQAGGSLRLSCAASGFTFAPNAMGWYRQAPGKEREFVAVITYRSTSTFYADSVKGRFTISRDNAKNTVYLQMNSLKPEDTAVYYCNAKYLWYGRYNYWGQGTQVTVSS,high polyreactivity
2,QVQLVESGGGLVQAGGSLRLSCAASGFTFAPYALGWYRQAPGKERELVAAIRRSGGSTYYADSVKGRFTISRDNAKNTVYLQMNSLKPEDTAVYYCAASTYQNGYGYWGQGTQVTVSS,high polyreactivity
3,QVQLVESGGGLVQAGGSLRLSCAASGFTFARNAMGWYRQAPGKERELVASITSGGSTNYADSVKGRFTISRDNAKNTVYLQMNSVKPEDSAVYYCNALWWAPGRPGEEIYRILDYWGQGTQVTVSS,low polyreactivity
4,QVQLVESGGGLVQAGGSLRLSCAASGFTFARYAMGWYIQAPGKEREFVAAISLSTTSTYYADSVKGRFTISRDNAKNTVYLQMNSLKPEDTAVYYCATDIVGPHVDYWGQGTQVTVSS,low polyreactivity
5,QVQLVESGGGLVQAGGSLRLSCAASGFTFARYAMGWYRQAPGKERELVAAIDRSGGSTYYADSVKGRFTISRDNAKNTVFLQMNSLKPEDTAVYYCNAVSSFTSPRYDYWGQGTQVTVSS,high polyreactivity
6,QVQLVESGGGLVQAGGSLRLSCAASGFTFARYAMGWYRQAPGKERELVAAISSRGGRTYYADSVKGRFTISRDNAKNTVYLQMNSLKPEDTAVYYCNAGYAHTYDYWGQGTQVTVSS,high polyreactivity
7,QVQLVESGGGLVQAGGSLRLSCAASGFTFARYAMGWYRQAPGKERELVAAITYSGSGTYYADSVKGRFTISRDNAKNTVYLQMNSLKPEDTAVYYCYPVTRSARSYDYWGQGTQVTVSS,high polyreactivity
8,QVQLVESGGGLVQAGGSLRLSCAASGFTFARYAMGWYRQAPGNERELVAAITRRGGSTYYADSVKGRFTISRDNAKDTVYLQMNSLKPEDTAVYYCAADSSSGSDYWGQGTQVTVSS,high polyreactivity
9,QVQLVESGGGLVQAGGSLRLSCAASGFTFARYAMGWYTKAPGKERELVARISSDGGGTDYADSVKGRFTISRDNAKNTVYLQMNSLKPEDTAVYYCAARFPGYHYFKYYYWGQGTQVTVSS,low polyreactivity
10,QVQLVESGGGLVQAGGSLRLSCAASGFTFARYTMGWSRQAPGKEREFVAAISWSGGRTYYADSVKGRFTISRDNAKNTVYLQMNSLKPEDTAVYYCAAEYWGVYRGFVSSFDYWGQGTQVTVSS,high polyreactivity
11,QVQLVESGGGLVQAGGSLRLSCAASGFTFARYTMGWYRQAPGKERELVAAISSRGSSTYYADSVKGRFTISRDNAKNTVYLQMNSLKRVDTAVYYCAAPPRYGYDYWGHGTQVTVSS,high polyreactivity
12,QVQLVESGGGLVQAGGSLRLSCAASGFTFARYTMGWYRQEPGKERELVAAISSRGSSTYYADSVKGRFTISRDNAKNTVYLQMNSLKPEDTAVYYCAAPPRYGYDYWGQGTQVTVSS,high polyreactivity
13,QVQLVESGGGLVQAGGSLRLSCAASGFTFAVYVMGWSRQAPGKERELVATISFSVGSTYYADSVKRRFTISRDNAKNTVYLQMNSLKPEDTAVYYCNADPPPEYYPDKDNYWGQGTQVTVSS,low polyreactivity
14,QVQLVESGGGLVQAGGSLRLSCAASGFTFAWNAMGWYRQAPGKERELVATIDVSGGSTYYADSVKGRFTISRDNAKNTVYLQMNSLKPEDTAVYYCAAVELPEGGYDYWGQGTQVTVSS,low polyreactivity
15,QVQLVESGGGLVQAGGSLRLSCAASGFTFAWYTMGWYRQAPGKERELVAGIDWSGGSTYYADSVKGRFTISRDNAKNTVYLQMNSLKPEDTAVYYCNAAGLYYVYPGYDYWGQGTQVTVSS,high polyreactivity
16,QVQLVESGGGLVQAGGSLRLSCAASGFTFAYNAMGWYRQAPGKERELVAAISGRGVSTYYADSVKGRFTISRDNAKNTVYLQMNSLKPEDTAVYYCAKRYRYWTTERYDYWGQGTQVTVSS,high polyreactivity
17,QVQLVESGGGLVQAGGSLRLSCAASGFTFAYNAMGWYRQAPGKERELVAAISSSGGRTYYADSVKGRFTISRDNAKNTVYLQMNSLKPEDTAVYDCATRPKVAYEYDYWGQGTQVTVSS,high polyreactivity
18,QVQLVESGGGLVQAGGSLRLSCAASGFTFAYYAMGWYRLAPGKERELVAAINRSGGSTYYADSVKGRFTISRDNAKNTVYIEMNSLKPEDTAVYYCAAARPSLRDGVAHYYWGQGTQVTVSS,high polyreactivity
19,QVQLVESGGGLVQAGGSLRLSCAASGFTFAYYAMGWYRQAPGKERELVAAINWSGTRTSYADSVKGRFTISRDNAKNTVYLQMNSLKPEDSAVYYCAADSSLRYDYWGQGTQVTVSS,high polyreactivity
20,QVQLVESGGGLVQAGGSLRLSCAASGFTFAYYAMGWYRQAPGKERELVASISYNGGITNYADSVKGRFTISRDNAKNTVYLQMNSLKPEDTAVYYCAAGVFFFTFDYWGQGTQVTVSS,low polyreactivity
21,QVQLVESGGGLVQAGGSLRLSCAASGFTFAYYAMGWYRQAPGTERELVAAITYSGGSTYYADSVKGRFTISRDNAKNTVYLQMNSLKPEDTAVYYCNAYDRRYYYGRWYGEFDYWGQGTQVTVSS,low polyreactivity
